This is an account of results in paper PMC9808567.

The term Kd denotes a measure of binding affinity in units of concentration.

Experiment in all cases: EMSA
In general terms: Mobility shift assays separate free from complexed probe on a gel.

The target of one data set is T1, PRPF39 full-length (human, UniProt Q86UA1 1-669).
T1 sequence: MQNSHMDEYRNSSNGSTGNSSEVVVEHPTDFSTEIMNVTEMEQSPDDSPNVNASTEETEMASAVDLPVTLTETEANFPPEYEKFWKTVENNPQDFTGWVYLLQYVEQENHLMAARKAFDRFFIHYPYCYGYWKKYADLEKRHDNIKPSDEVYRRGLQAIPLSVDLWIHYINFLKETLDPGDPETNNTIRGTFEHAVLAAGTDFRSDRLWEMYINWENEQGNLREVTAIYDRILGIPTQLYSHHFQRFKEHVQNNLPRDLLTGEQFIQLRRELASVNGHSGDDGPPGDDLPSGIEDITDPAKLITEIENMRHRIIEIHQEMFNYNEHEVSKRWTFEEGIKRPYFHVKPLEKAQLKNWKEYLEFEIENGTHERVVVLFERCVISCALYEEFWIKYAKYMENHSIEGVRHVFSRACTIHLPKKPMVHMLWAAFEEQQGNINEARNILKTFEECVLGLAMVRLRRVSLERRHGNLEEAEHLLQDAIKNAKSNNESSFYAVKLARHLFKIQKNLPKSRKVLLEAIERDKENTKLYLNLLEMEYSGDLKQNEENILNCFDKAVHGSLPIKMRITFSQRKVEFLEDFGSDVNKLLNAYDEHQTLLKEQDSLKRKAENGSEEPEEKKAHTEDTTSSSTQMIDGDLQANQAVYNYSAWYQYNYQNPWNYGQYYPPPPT

For a further data set, the target named is T2, PRPF39 CTD (human, UniProt Q86UA1 297-669).
T2 sequence: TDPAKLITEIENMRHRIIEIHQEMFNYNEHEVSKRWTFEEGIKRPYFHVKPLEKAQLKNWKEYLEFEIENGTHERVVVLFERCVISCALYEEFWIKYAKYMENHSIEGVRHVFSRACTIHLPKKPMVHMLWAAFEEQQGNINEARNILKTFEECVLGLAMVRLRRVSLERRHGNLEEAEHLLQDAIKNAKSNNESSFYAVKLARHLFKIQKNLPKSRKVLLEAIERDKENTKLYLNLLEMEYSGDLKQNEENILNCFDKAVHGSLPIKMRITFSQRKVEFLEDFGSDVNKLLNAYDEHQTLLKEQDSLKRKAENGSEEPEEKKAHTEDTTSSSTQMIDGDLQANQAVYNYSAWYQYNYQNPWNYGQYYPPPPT

Another data set addresses T3, PRPF39 NTD (human, UniProt Q86UA1 1-296).
T3 sequence: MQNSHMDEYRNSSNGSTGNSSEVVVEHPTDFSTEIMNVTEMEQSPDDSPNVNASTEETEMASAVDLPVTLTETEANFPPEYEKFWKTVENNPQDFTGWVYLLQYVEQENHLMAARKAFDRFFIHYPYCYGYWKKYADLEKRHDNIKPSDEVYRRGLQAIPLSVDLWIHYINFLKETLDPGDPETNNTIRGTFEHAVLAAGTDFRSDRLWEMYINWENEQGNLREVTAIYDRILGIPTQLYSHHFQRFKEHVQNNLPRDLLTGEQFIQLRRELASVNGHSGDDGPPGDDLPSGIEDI

B1: GC-rich RNA oligo (ssRNA)
RNA: GGCCCCCCGG
In the data set with PRPF39 full-length, B1 returned a Kd of 516 ± 256 nM.

B2: 10 nt poly(A) RNA oligo (ssRNA)
RNA: AAAAAAAAAA
On to B2, for which the binding result with PRPF39 CTD and with PRPF39 NTD was “no binding” throughout.
